Starred links: 1 amine or outer side, 2 acyl side, 3 side chain; linkers in the order of their positions; H or OH if unused. Positions of bridges follow the written chain, without caps; N, C: chain ends. Non-standard residues stand in square brackets, D forms with d. No end group written: not given here. X1 = 3‑(7-(3-acetamidophenyl)-1H-indol-3-yl)‑2‑aminopropanoic acid, CC(=O)Nc1cccc(-c2cccc3c(CC(N[*:1])C(=O)[*:2])c[nH]c23)c1; X11 = 2‑amino‑3‑(2-hydroxyquinolin-6-yl)propanoic acid, O=C(C(Cc1ccc2nc(O[*:3])ccc2c1)N[*:1])[*:2]; X7 = 2‑amino‑3‑(5-methylpyridin-3-yl)propanoic acid, Cc1cncc(CC(N[*:1])C(=O)[*:2])c1; Trp(7-Me) = Cc1cccc2c(C[C@H](N)C(=O)O)c[nH]c12; 3Pal = N[C@@H](Cc1cccnc1)C(=O)O; NMeK = CN[C@@H](CCCCN)C(=O)O; Pen = CC(C)(S)[C@H](N)C(=O)O; αMeC = C[C@](N)(CS)C(=O)O; lipid = not defined here; Thp = NC1(C(=O)O)CCOCC1; Abu = CC[C@H](N)C(=O)O; Ava = NCCCCC(=O)O; Sar = CNCC(=O)O

The target in this assay is T1, interleukin-23 receptor (IL-23R), Q5VWK5.
T1 chain: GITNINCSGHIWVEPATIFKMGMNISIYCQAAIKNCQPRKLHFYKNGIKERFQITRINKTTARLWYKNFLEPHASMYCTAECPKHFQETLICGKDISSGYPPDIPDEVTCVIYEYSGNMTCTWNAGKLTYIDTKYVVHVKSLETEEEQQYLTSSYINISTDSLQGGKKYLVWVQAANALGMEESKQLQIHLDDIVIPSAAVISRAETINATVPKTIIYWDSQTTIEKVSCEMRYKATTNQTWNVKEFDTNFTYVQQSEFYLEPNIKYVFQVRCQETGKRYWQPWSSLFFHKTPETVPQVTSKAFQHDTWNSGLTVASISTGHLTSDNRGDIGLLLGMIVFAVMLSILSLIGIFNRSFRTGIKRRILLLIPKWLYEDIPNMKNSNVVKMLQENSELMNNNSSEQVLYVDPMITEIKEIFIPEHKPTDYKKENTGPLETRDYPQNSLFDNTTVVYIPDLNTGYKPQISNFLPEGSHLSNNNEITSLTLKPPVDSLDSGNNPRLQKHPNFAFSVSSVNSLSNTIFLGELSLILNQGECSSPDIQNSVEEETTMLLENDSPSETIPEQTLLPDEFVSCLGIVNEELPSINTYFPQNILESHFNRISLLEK
The experiment in a line: cell-based or functional assay.

B1: SEQ ID NO: 157 (peptide)
peptide: R[Pen]ET[X1]K(Ac)[Pen][2‑amino‑3‑(4-(2-aminoethoxy)phenyl)propanoic acid][2‑amino‑3‑(6-hydroxynaphthalen-2-yl)propanoic acid][Thp]EN[3Pal][Sar]
modifications: disulfide 2-7 (inferred); ends not checked
In the case of B1, the IL23R Reporter Assay IC50 is below 0.01 µM and the PBMC pSTAT3 IC50 is below 0.01 nM.

B2: SEQ ID NO: 154 (peptide)
peptide: R[Pen]NT[X1]K[Pen][2‑amino‑3‑(4-(2-aminoethoxy)phenyl)propanoic acid][2‑amino‑3‑(6-hydroxynaphthalen-2-yl)propanoic acid][Thp]EN[3Pal][Sar]
modifications: disulfide 2-7 (inferred); ends not checked; also: K6: lipidated lysine, lipid not given here
In turn, B2 returned an IL23R Reporter Assay IC50 above 0.1 µM and a PBMC pSTAT3 IC50 below 1 nM.

B3: SEQ ID NO: 172 (peptide)
peptide: [Ava][Abu]NTWQC[2‑amino‑3‑(4-(2-aminoethoxy)phenyl)propanoic acid][2‑amino‑3‑(6-hydroxynaphthalen-2-yl)propanoic acid][Thp]EN[3Pal][Sar]
modifications: ends and bridges not checked
In the case of B3, the IL23R Reporter Assay IC50 is below 0.01 µM and the PBMC pSTAT3 IC50 was below 0.01 nM.

B4: SEQ ID NO: 168 (peptide)
peptide: [(R)‑3‑carboxy‑2‑(4-(((R)-5-carboxy-5-hydrazineylpentyl)amino)-4-oxobutanamido)‑N,N,N‑trimethylpropan‑1‑aminium][Pen]NT[Trp(7-Me)]K(Ac)[Pen][2‑amino‑3‑(4-(2-aminoethoxy)phenyl)propanoic acid][2‑amino‑3‑(6-hydroxynaphthalen-2-yl)propanoic acid][Thp]EN[3Pal][NMeK](lipid)
modifications: disulfide 2-7 (inferred); not fully specified; ends not checked
On to B4, for which the IL23R Reporter Assay IC50 is above 0.1 µM and the PBMC pSTAT3 IC50 is below 1 nM.

B5: SEQ ID NO: 167 (peptide)
peptide: [(R)‑3‑carboxy‑2‑(4-(((R)-5-carboxy-5-hydrazineylpentyl)amino)-4-oxobutanamido)‑N,N,N‑trimethylpropan‑1‑aminium][Pen]NT[Trp(7-Me)]K(Ac)[Pen][2‑amino‑3‑(4-(2-aminoethoxy)phenyl)propanoic acid][2‑amino‑3‑(6-hydroxynaphthalen-2-yl)propanoic acid][Thp]EN[3Pal][NMeK](lipid)
modifications: disulfide 2-7 (inferred); ends not checked; also: X14: lipidated N-methyl-lysine, lipid and methyl place not given here
Molecule B5 came in with an IL23R Reporter Assay IC50 above 0.1 µM and a PBMC pSTAT3 IC50 below 1 nM.

B6: SEQ ID NO: 158 (peptide)
peptide: R[Pen]ET[X1]K(Ac)[Pen][2‑amino‑3‑(4-(2-aminoethoxy)phenyl)propanoic acid][2‑amino‑3‑(6-hydroxynaphthalen-2-yl)propanoic acid][Thp]EN[3Pal][Sar]
modifications: disulfide 2-7 (inferred); ends not checked
Take B6: the IL23R Reporter Assay IC50 is below 0.01 µM and the PBMC pSTAT3 IC50 is below 0.01 nM.

B7: SEQ ID NO: 178 (peptide)
peptide: [Pen]NT[Trp(7-Me)]K(lipid)[Pen][2‑amino‑3‑(4-(2-aminoethoxy)phenyl)propanoic acid][2‑amino‑3‑(6-hydroxynaphthalen-2-yl)propanoic acid][Thp]K(Ac)N[3Pal][Sar]
modifications: disulfide 1-6 (inferred); ends not checked; also: K5 lipidated, lipid not given here
Molecule B7 had an IL23R Reporter Assay IC50 above 0.1 µM and a PBMC pSTAT3 IC50 above 1 nM.

B8: SEQ ID NO: 20 (peptide)
peptide: R[Pen]NT[X1]K(Ac)[Pen][5‑(4-(2-amino-2-carboxyethyl)phenoxy)‑N,N,N‑trimethylpentan‑1‑aminium][2‑amino‑3‑(6-hydroxynaphthalen-2-yl)propanoic acid][Thp]EN[X7][Sar]
modifications: ends and bridges not checked
Molecule B8 gave an IL23R Reporter Assay IC50 below 0.01 µM and a PBMC pSTAT3 IC50 below 0.1 nM.

B9: SEQ ID NO: 171 (peptide)
peptide: [Ava][Abu]NT[Trp(7-Me)]K(Ac)C[2‑amino‑3‑(4-(2-aminoethoxy)phenyl)propanoic acid][2‑amino‑3‑(6-hydroxynaphthalen-2-yl)propanoic acid][Thp]EN[3Pal][Sar]
modifications: ends and bridges not checked
For B9, the IL23R Reporter Assay IC50 was below 0.01 µM and the PBMC pSTAT3 IC50 is below 0.01 nM.

B10: SEQ ID NO: 2 (peptide)
peptide: RCNT[X1]K(Ac)[αMeC][2‑amino‑3‑(4-(2-aminoethoxy)phenyl)propanoic acid][2‑amino‑3‑(6-hydroxynaphthalen-2-yl)propanoic acid][Thp]EN[3Pal][Sar]
modifications: ends and bridges not checked
Turning to B10, the IL23R Reporter Assay IC50 was below 0.01 µM.

B11: SEQ ID NO: 22 (peptide)
peptide: [Pen]NT[X1]K(Ac)[Pen][5‑(4-(2-amino-2-carboxyethyl)phenoxy)‑N,N,N‑trimethylpentan‑1‑aminium][2‑amino‑3‑(6-hydroxynaphthalen-2-yl)propanoic acid][Thp]EN[X7][Sar]
modifications: ends and bridges not checked
Molecule B11 gave an IL23R Reporter Assay IC50 below 0.01 µM and a PBMC pSTAT3 IC50 below 0.01 nM.

B12: SEQ ID NO: 152 (peptide)
peptide: [Pen]NT[X1]K[Pen][2‑amino‑3‑(4-(2-aminoethoxy)phenyl)propanoic acid][2‑amino‑3‑(6-hydroxynaphthalen-2-yl)propanoic acid][Thp]K(Ac)N[3Pal][Sar]
modifications: disulfide 1-6 (inferred); ends not checked; also: Lys5: lipidated lysine, lipid not given here
In the case of B12, the IL23R Reporter Assay IC50 was above 0.1 µM and the PBMC pSTAT3 IC50 was below 1 nM.

B13: SEQ ID NO: 149 (peptide)
peptide: [Pen]NT[Trp(7-Me)]K(Ac)[Pen][2‑amino‑3‑(4-(2-aminoethoxy)phenyl)propanoic acid][X11][Thp]EN[3Pal][Sar]
modifications: disulfide 1-6 (inferred); ends not checked
Consider B13, for which the IL23R Reporter Assay IC50 is below 0.01 µM and the PBMC pSTAT3 IC50 was below 0.1 nM.

B14: SEQ ID NO: 177 (peptide)
peptide: [Pen]NT[Trp(7-Me)]K(Ac)[Pen][2‑amino‑3‑(4-(2-aminoethoxy)phenyl)propanoic acid][2‑amino‑3‑(6-hydroxynaphthalen-2-yl)propanoic acid][Thp]K(lipid)N[3Pal][Sar]
modifications: disulfide 1-6 (inferred); ends not checked; also: K10 lipidated, lipid not given here
Take B14: the IL23R Reporter Assay IC50 was above 0.1 µM and the PBMC pSTAT3 IC50 was above 1 nM.

These data come from patent US20240279281A1, “Peptide Inhibitors of Interleukin-23 Receptor” (Janssen Pharmaceutica NV, priority 2023, published 2024).
